B1: Antibody Ab6 (antibody, human IgG1, kappa, N297A)
heavy: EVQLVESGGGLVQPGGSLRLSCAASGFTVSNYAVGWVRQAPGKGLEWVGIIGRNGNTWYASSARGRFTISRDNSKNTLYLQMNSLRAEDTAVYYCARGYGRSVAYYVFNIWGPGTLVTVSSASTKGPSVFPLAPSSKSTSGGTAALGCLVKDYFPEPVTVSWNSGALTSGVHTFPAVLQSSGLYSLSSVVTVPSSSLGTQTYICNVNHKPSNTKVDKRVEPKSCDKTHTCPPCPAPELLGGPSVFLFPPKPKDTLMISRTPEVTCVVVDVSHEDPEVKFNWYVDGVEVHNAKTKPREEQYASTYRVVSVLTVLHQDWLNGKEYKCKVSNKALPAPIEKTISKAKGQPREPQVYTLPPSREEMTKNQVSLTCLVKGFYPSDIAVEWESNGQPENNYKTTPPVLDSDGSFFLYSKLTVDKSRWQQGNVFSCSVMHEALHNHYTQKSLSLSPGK
light: DIQMTQSPSTLSASVGDRVTITCQASQSIYSNLAWYQQKPGKAPKLLIYDASTLESGVPSRFSGSGSGTEYTLTISSLQPDDFATYYCQQGFTVSDIDNAFGGGTKVEIKRTVAAPSVFIFPPSDEQLKSGTASVVCLLNNFYPREAKVQWKVDNALQSGNSQESVTEQDSKDSTYSLSSTLTLSKADYEKHKVYACEVTHQGLSSPVTKSFNRGEC
B2: Antibody Ab1 (antibody, human IgG1, kappa, N297A, V domains shown)
VH: QSLEESGGRLVTPGTPLTLTCTVSGFSLSSYAMSWVRQAPGKGLEWIGVITSIGSTVYASWAKGRFTISKTSTTVDLKITSPTTEDTATYFCARGYDDYDEMTYFNIWGQGTLVTVSS
VL: ALVMTQTPSSVSAAVGGTVTINCQASQNIYSNLAWYQQRPGQRPKLLIYGASNLDAGVPSRFRGSGSGTEYTLTISDLECDDVGTYYCQSAFDSDSTENTFGGGTEVVVKR
B3: Antibody Ab5 (antibody, human IgG1, kappa, N297A, V domains shown)
VH: QSVEESGGRLVTPGTPLTLTCTVSGFSLSNYAVGWVRQAPGKGLEWIGIIGRNGNTWYASWARGRFTISKTSTTVDLKITSPTSEDTATYFCARGYGRSVAYYVFNIWGPGTLVTVSS
VL: AYDMTQTPASVEVAVGGTVTIKCQASQSIYSNLAWYQQRPGQPPKLLIYDASTLESGVPSRFKGSGSGTEYTLTISGVECADAASYYCQQGFTVSDIDNAFGGGTEVVVKR
B4: Antibody Ab4 (antibody, human IgG1, kappa, N297A, V domains shown)
VH: EVQLVESGGGLVQPGGSLRLSCAASGFTVSSYVMIWVRQAPGKGLEYIGITWSAGTYYASSAKGRFTISRDNSKNTLYLQMNSLRAEDTAVYYCAGGGGSIYDIWGQGTLVTVSS
VL: DIQMTQSPSTLSASVGDRVTITCQSSQSVYKNNYLSWYQQKPGKAPKLLIYDASNLPSGVPSRFSGSGSGTEFTLTISSLQPDDFATYYCLGDYDDDADNAFGGGTKVEIKR
B5: Antibody Ab2 (antibody, human IgG1, kappa, N297A, V domains shown)
VH: EVQLVESGGGLVQPGGSLRLSCAASGFTVSSYAMSWVRQAPGKGLEWVGVITSIGSTVYASSAKGRFTISRDNSKNTLYLQMNSLRAEDTAVYYCARGYDDYDEMTYFNIWGQGTLVTVSS
VL: DIQMTQSPSTLSASVGDRVTITCQASQNIYSNLAWYQQKPGKAPKLLIYGASNLDAGVPSRFSGSGSGTEYTLTISSLQPDDFATYYCQSAFDSDSTENTFGGGTKVEIKR
B6: Antibody Ab3 (antibody, human IgG1, kappa, N297A, V domains shown)
VH: QSVEESGGRLVTPGTPLTLTCTVSGFSLSSYVMIWVRQAPGKGLEYIGITWSAGTYYASWAKGRFTISKTSSTTVDLKITSPTTEDTATYFCAGGGGSIYDIWGPGTLVTVSS
VL: AVLTQTPSPVSAAMGDTVTIKCQSSQSVYKNNYLSWYQQKPGQPPRLLIYDASNLPSGVPSRFSGSGSGTQFTLTISGVQCDDAATYYCLGDYDDDADNAFGGGTEVVVKR
B7: Antibody Ab17 (antibody, human IgG1, kappa, N297A, V domains shown)
VH: QSLEESGGRLVTPGGSLTLTCAASGFSLTGYNLVWVRQAPGKGLEWIGFISYGDTTYYASWAKGRFTISKTSTTVTLTITDLQPSDTGTYFCARETANTYDYGIWGPGTLVTVSS
VL: AIEMTQTPFSVSAAVGGTVTIKCQASQTISNYLAWYQQKPGQPPKLLIYGASNLESGVPSRFKGSGSGTQFTLTISDLECDDAATYYCQQGYTISNVDNNVFGGGTEVVVKR
B8: Antibody Ab18 (antibody, human IgG1, kappa, N297A, V domains shown)
VH: EVQLVESGGGLVQPGGSLRLSCAASGFTVSGYNLVWVRQAPGKGLEWVGFISYGDTTYYASSAKGRFTISRDNSKNTLYLQMNSLRAEDTAVYYCARETANTYDYGIWGQGTLVTVSS
VL: DIQMTQSPSTLSASVGDRVTITCQASQTISNYLAWYQQKPGKAPKLLIYGASNLESGVPSRFSGSGSGTEFTLTISSLQPDDFATYYCQQGYTISNVDNNVFGGGTKVEIKR
B9: Antibody Ab16 (antibody, human IgG1, kappa, N297A, V domains shown)
VH: QSVEEFGGRLVTPGTPLTLTCTVSGFSLNNYAMTWVRQAPGKGLEWIGIIGSIGTTYYASWAKGRFFISKTSTTVDLKIISPTTEDTATYFCARDAGVTVDGYGYYFNIWGPGTLVTVSS
VL: ALVMTQTPSSTSEPVGGTVTINCQASQNIGNDLSWYQQKPGQPPELLIYSTSKLATGVPKRFSGSRSGTQFTLTISDLECDDAATYYCLGVYSYISDDGNAFGGGTEVVVKR
B10: Antibody Ab14 (antibody, human IgG1, kappa, N297A, V domains shown)
VH: EVQLVESGGGLVQPGGSLRLSCAASGFTVSTYWMSWVRQAPGKGLEWVGDIYFSNEETNYASSAKGRFTISRDNSKNTLYLQMNSLRAEDTAVYYCARGSPDVDIGIDMWGPGTLVTVSS
VL: DIQMTQSPSSLSASVGDRVTITCQSSQNVYKNNYLSWYQQKPGKVPKLLIYKASTLASGVPSRFSGSGSGTDFTLTISSLQPEDVATYYCAGGYTSSSDNAFGGGTKVEIKR
B11: Antibody Ab20 (antibody, human IgG1, kappa, N297A, V domains shown)
VH: EVQLVESGGGLVQPGGSLRLSCAASGFTVSTYWMSWVRQAPGKGLEWVGDIYFSNEETNYATSAKGRFTISRDNSKNTLYLQMNSLRAEDTAVYYCARGSPDVEIAIDMWGQGTLVTVSS
VL: DIQMTQSPSSLSASVGDRVTITCQSSQNVYKNNYLSWYQQKPGKVPKLLIYKASTLASGVPSRFSGSGSGTDFTLTISSLQPEDVATYYCAGGYTSSSDNAFGGGTKVEIKR
B12: Antibody Ab15 (antibody, human IgG1, kappa, N297A, V domains shown)
VH: QSVEESGGRLVTPGTPLTLTCTVSGIDLSSYAMIWVRQAPGKGLEYIGIIWSGGTYYATWAKGRFTISKTSTTVDLQITSPTTEDAATYFCAAGGGSIYDVWGPGTLVTVSS
VL: AAVLTQTPSPVSAAVGDTVTIKCQSSQSVYKNNYLSWYQQKPGQPPKLLIYDASNLPSGVPSRFSGSGSGTQFTLTISGVQCDDAATYYCLGDYDDDTDNGFGGGTEVVVKR
B13: Antibody fragment Fab1 (Fab, V domains shown)
VH: EVQLVESGGGLVQPGGSLRLSCAASGFTVSNYAVGWVRQAPGKGLEWVGIIGRNGNTWYASSARGRFTISRDNSKNTLYLQMNSLRAEDTAVYYCARGYGRSVAYYVFNIWGPGTLVTVSS
VL: DIQMTQSPSTLSASVGDRVTITCQASQSIYSNLAWYQQKPGKAPKLLIYDASTLESGVPSRFSGSGSGTEYTLTISSLQPDDFATYYCQQGFTVSDIDNAFGGGTKVEIKR
B14: Antibody fragment Fab2 (Fab, V domains shown)
VH: EVQLVESGGGLVQPGGSLRLSCAASGFTVSNYAVGWVRQAPGKGLEWVGIIGRNGNTWYASSARGRFTISRDNSKNTLYLQMNSLRAEDTAVYYCARGYGRSVAYYVFNIWGPGTLVTVSS
VL: DIQMTQSPSTLSASVGDRVTITCQASQSIYSNLAWYQQKPGKAPKLLIYDASTLESGVPSRFSGSGSGTEYTLTISSLQPDDFATYYCQQGFTVSDIDNAFGGGTKVEIKR

The target of the first test is T1, Homo sapiens Beta-Nerve Growth Factor (beta-NGF) (Homo sapiens, UniProt P01138 122-241).
T1 construct: Biotinylated and held on neutravidin plates in the ELISA; also called huNGF; B-NGF
T1 sequence (P01138 122-241): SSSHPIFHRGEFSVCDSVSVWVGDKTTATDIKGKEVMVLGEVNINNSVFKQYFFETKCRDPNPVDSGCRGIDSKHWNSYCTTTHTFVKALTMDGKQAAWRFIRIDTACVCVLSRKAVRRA
Briefly: Antigen binding ELISA: biotinylated NGF on neutravidin plates, anti-human Fc-HRP, OD 450 nm. How it is done: (§1) To identify and characterize antibodies and Fab fragments that bind to human NGF, antibody- and Fab-containing solutions were tested by ELISA. Briefly, neutravidin coated plates (Thermo Scientific), were blocked with ELISA buffer (0.1 mg/mL BSA, 1×PBS pH 7.4, 0.002% Tween 20 and 0.005% sodium azide) for 1 hr at room temperature. The plates were then coated with a 1 µg/mL biotinylated B-NGF solution in ELISA buffer for 1 hour at room temperature. This was followed by a wash step (3× using PBS plus 0.05% Tween 20) and a second block with ELISA buffer. The recombinant antibodies or Fabs were then added onto the plates and incubated for 1 hour at room temperature and then washed 3× with PBS/Tween solution. For development, an anti-human Fc-HRP or an anti-human Fab-fragment HRP (1:5000 dilution in ELISA buffer) was added onto the wells and incubated for 45 min at RT. After a 3× wash step with PBS/Tween solution, the plate was developed using TMB substrate for 3 minutes, stopped using 0.5M HCl, and read at 450 nm.
Turning to B1, a half-maximal effect (EC50) was put at 256 pM and the concentration for a half-maximal effect (EC50 (read off the curve)) is around 300 pM.

On to B2, for which the 50% effective concentration (EC50) is 571 pM and the “EC50 (read off the curve)” value was around 600 pM.

In the case of B3, the 50% effective concentration (EC50) turned out to be 253 pM and the “EC50 (read off the curve)” value was around 300 pM.

As to B4, the midpoint of the response, the EC50, lay at 535 pM and the concentration giving a half-maximal response (EC50 (read off the curve)) was around 50 pM.

As to B5, the EC50 came out at 692 pM and the half-maximal effective concentration (EC50 (read off the curve)) is around 700 pM.

Regarding B6, the concentration giving a half-maximal response (EC50) came out at 257 pM and the concentration giving a half-maximal response (EC50 (read off the curve)) is around 300 pM.

The target of another test is T1, Homo sapiens Beta-Nerve Growth Factor …. Briefly: antigen binding ELISA: biotinylated NGF on neutravidin plates, anti-human Fc-HRP, OD at 450 nm. How it is done: as §1
The molecule B7 gave an EC50 of 700 pM.

Molecule B8 had an EC50 of 561 pM.

The molecule B9 showed a 50% effective concentration (EC50) of 358 pM.

For the molecule B10, a half-maximal effect (EC50) was put at 646 pM.

B11 had an EC50 of 667 pM.

In turn, B12 registered an EC50 of 239 pM.

The target is the same in the next test. Briefly: Antigen binding ELISA: biotinylated NGF on neutravidin plates, anti-human Fab-fragment HRP, OD 450 nm. How it is done:
as §1
In general terms: ELISA stands for enzyme-linked immunosorbent assay.
With B13, the EC50 was 400 pM and the “EC50 (read off the curve)” value is around 40 pM.

B14: the midpoint of the response, the EC50, lay at 800 pM and the concentration giving a half-maximal response (EC50 (read off the curve)) was around 80 pM.

A word on the EC50: it is the midpoint of the concentration-response curve. High values mean weaker potency, low ones greater potency. Usually EC50 (read off the curve) stands for the concentration giving half of the maximal effect. High values mean a need for much substance, low ones an effect from little substance.

The values above are taken from US20170051048A1 (ALDERBIO, published 2017).
